In US7335722 (FOOD INDUSTRY RESEARCH AND DEVELOPMENT INSTITUTE, dated 2008):

T1: Angiotensin converting enzyme (ACE)
T1 sequence (F1RRW5 whole entry, species assumed, looked up): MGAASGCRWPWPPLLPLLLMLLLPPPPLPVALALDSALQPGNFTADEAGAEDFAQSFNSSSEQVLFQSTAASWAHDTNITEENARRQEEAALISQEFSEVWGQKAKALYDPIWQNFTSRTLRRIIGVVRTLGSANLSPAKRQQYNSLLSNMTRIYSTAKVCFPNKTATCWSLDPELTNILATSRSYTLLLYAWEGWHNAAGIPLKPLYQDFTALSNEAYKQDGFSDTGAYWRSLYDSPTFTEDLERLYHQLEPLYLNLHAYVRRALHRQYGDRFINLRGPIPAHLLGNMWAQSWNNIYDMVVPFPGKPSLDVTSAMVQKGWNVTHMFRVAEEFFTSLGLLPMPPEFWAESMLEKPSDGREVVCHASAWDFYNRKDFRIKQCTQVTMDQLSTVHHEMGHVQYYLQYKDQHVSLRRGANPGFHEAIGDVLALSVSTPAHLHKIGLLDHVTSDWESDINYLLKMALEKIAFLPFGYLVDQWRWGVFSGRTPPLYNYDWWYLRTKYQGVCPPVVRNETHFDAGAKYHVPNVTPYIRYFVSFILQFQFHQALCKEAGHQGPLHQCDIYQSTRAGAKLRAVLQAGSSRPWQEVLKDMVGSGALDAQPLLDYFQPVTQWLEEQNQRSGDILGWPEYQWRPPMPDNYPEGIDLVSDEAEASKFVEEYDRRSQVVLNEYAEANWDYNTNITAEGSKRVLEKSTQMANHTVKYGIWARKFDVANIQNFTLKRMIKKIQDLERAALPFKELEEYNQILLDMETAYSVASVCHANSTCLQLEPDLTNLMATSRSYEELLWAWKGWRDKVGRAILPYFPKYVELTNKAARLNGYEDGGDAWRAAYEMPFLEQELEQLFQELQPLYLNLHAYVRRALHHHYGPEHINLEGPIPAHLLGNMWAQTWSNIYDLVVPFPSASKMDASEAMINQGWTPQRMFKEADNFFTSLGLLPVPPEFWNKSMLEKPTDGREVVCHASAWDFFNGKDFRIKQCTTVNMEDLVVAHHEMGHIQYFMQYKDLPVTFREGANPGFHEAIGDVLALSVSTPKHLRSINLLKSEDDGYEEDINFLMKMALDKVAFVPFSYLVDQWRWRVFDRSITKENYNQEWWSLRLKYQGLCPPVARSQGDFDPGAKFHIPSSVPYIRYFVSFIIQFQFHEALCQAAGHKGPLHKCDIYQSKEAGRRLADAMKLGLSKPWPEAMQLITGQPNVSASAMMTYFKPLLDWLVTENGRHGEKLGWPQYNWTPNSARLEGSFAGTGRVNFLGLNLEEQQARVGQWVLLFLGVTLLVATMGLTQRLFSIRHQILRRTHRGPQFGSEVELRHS


Molecular target: T1, Angiotensin converting enzyme (ACE)
Test: cell-based or functional assay

Row | ACE inhibitory activity (IC50) [µM] | Binder
1 | 172 | ILPP [Ile-Leu-Pro-Pro (ILPP)]
2 | 97 | VLPP [Val-Leu-Pro-Pro (VLPP)]
